Results: patent US20050232925A1, “Protease activity of thrombin inhibits angiogenesis” (priority 2002, published 2005)

Assays:
HUVEC cells = assay: In vitro angiogenesis (matrigel tube formation) assay; format: cell-based, human; conditions: in the absence of plasma; rt-PA 1 μg/ml, captopril 0.1 μM
Procedure: In Vitro Angiogenesis (matrigel tube formation) Assay. Unpolymerized matrigel (7 mg/ml) was placed in the wells (100 μl/well) of a pre-chilled 48-well cell culture plate and then incubated at 37° C. for 30-45 minutes. HUVEC cells were harvested in trypsin and resuspended in EC medium (4×10^4 in 300 μl). Cells were treated with the different agents before plated onto the matrigel-coated plates. […] Microphotographs of the center of each well at low power (40×) were taken with a SPOT camera (Diagnostic Instruments Inc; Sterling Heights, Mich.) and the aid of an imaging capture software (Compix Inc Imaging Systems; Township, Pa.). The microphotographs were quantitatively analyzed (total tube length) with the Simple PCI imaging analysis software (Compix).
Matrigel tube formation assays. Samples collected from the purification process were exchanged into 1×PBS and reconstituted into 1× concentration (by volume) compared to the input tPA/captopril-treated plasma. They were tested in the matrigel tube formation assays at 10% (v/v) as follows. […] Tube formation was examined (4× magnification) through an inverted phase contrast microscope (Nikon Corporation; Tokyo, Japan) and recorded by a Spot RT camera (Diagnostic Instruments Inc; Sterling Heights, Mich.) using an automated image capture software (Compix Inc Imaging Systems; Township, Pa.).

[1] = test system: 4T1 murine breast cancer cell line; assay: Primary tumor growth of transfected 4T1 cells in BALB/c mice; format: in vivo; conditions: stable expression in 4T1 cells, mammary pad of BALB/c mice, vs empty vector, five weeks
From the text: Construction of mutant uPA clones and cell transfection. We chose to pursue a genetic approach, in which we stably transfected an aggressive and highly metastatic murine breast cancer cell line (4T1) with the genes for wild type uPA, tPA and a receptor binding mutant of uPA (uPAm). We inserted the cDNA encoding murine tPA into pcDNA 3.1 (+) (Invitrogen), a CMV driven mammalian expression vector, by restriction enzyme digestion of BamHI and NheI. Wild type uPA cDNA was inserted to the pcDNA 3.1 (+) expression vector and the transfected into 4T1 cells in a similar fashion as described for the tPA cDNA. Residues 22, 27, 29 and 30 on the growth factor domain of the murine uPA molecule have been implicated in binding to mouse uPAR.
The pcDNA 3.1-tPA, pcDNA 3.1-wild type uPA, pcDNA 3.1-uPAm constructs, as well as an empty vector control were introduced into 4T1 cells by transfection using lipofectamine (Gibco-BRL) reagent. We selected 12-14 stable single clones in each group with 500 ug/mL of hygromycin. Each of the clones was evaluated for generation of the gene of interest by northern blot. The clones that had the highest generation of the genes of interest were selected. […]
Experiments using transfected tumor cells. […] Primary tumor size was measured every other day for a total of five weeks using calipers and calculated using the standard formula (width2×length×0.52). […]

Row | Molecule | inhibition of tube formation (HUVEC cells) | inhibition of primary tumor growth [1]
1 | rt-PA: rt-PA (Genentech), recombinant tissue plasminogen activator; called tPA in Example 2 (protein, UniProt P00750 36-562, looked up, alteplase) Tissue-type plasminogen …: SYQVICRDEKTQMIYQQHQSWLRPVLRSNRVEYCWCNSGRAQCHSVPVKSCSEPRCFNGGTCQQALYFSDFVCQCPEGFAGKCCEIDTRATCYEDQGISYRGTWSTAESGAECTNWNSSALAQKPYSGRRPDAIRLGLGNHNYCRNPDRDSKPWCYVFKAGKYSSEFCSTPACSEGNSDCYFGNGSAYRGTHSLTESGASCLPWNSMILIGKVYTAQNPSAQALGLGKHNYCRNPDGDAKPWCHVLKNRRLTWEYCDVPSCSTCGLRQYSQPQFRIKGGLFADIASHPWQAAIFAKHRRSPGERFLCGGILISSCWILSAAHCFQERFPPHHLTVILGRTYRVVPGEEEQKFEVEKYIVHKEFDDDTYDNDIALLQLKSDSSRCAQESSVVRTVCLPPADLQLPDWTECELSGYGKHEALSPFYSERLKEAHVRLYPSSRCTSQHLLNRTVTDNMLCAGDTRSGGPQANLHDACQGDSGGPLVCLNDGRMTLVGIISWGLGCGQKDVPGVYTKVTNYLDWIRDNMRP | did not cause significant inhibition of tube formation | 
2 | tPA: murine tPA expressed from pcDNA 3.1 in 4T1 cells (not the rt-PA drug) (protein, UniProt P11214 33-559, looked up) Tissue-type plasminogen …: SYRATCRDEPTQTTYQQHQSWLRPMLRSSRVEYCRCNSGLVQCHSVPVRSCSEPRCFNGGTCQQALYFSDFVCQCPDGFVGKRCDIDTRATCFEEQGITYRGTWSTAESGAECINWNSSVLSLKPYNARRPNAIKLGLGNHNYCRNPDRDLKPWCYVFKAGKYTTEFCSTPACPKGKSEDCYVGKGVTYRGTHSLTTSQASCLPWNSIVLMGKSYTAWRTNSQALGLGRHNYCRNPDGDARPWCHVMKDRKLTWEYCDMSPCSTCGLRQYKRPQFRIKGGLYTDITSHPWQAAIFVKNKRSPGERFLCGGVLISSCWVLSAAHCFLERFPPNHLKVVLGRTYRVVPGEEEQTFEIEKYIVHEEFDDDTYDNDIALLQLRSQSKQCAQESSSVGTACLPDPNLQLPDWTECELSGYGKHEASSPFFSDRLKEAHVRLYPSSRCTSQHLFNKTVTNNMLCAGDTRSGGNQDLHDACQGDSGGPLVCMINKQMTLTGIISWGLGCGQKDVPGVYTKVTNYLDWIHDNMKQ |  | significantly inhibit tumor cell growth
